Measured values: US20080248995, “Modulation of PPARgamma2 gene promoter by FOXO1” (Technion Research and Development Foundation Ltd., published 2008)

Tests used:
[1] = biological target: FOXO1 (FLAG-tagged, transfected) (Homo sapiens) (UniProt Q12778); assay: cell_activity; settings: 3xIRS-LUC in primary rat adipocytes, data not shown
[2] = biological target: T1, FOXO1 (FLAG-tagged, full-length) (Homo sapiens, UniProt Q12778 SEQ:126-780); assay: EMSA; competed by 100x and 200x unlabeled probe; supershift with anti-FLAG and anti-FOXO1 H-128, not N-18; 50 mM KCl, 1 mM EDTA, pH 7.9, poly(dI-dC), 25 C; settings: tags: FLAG; TnT reticulocyte lysate; label: 32P
T1 chain: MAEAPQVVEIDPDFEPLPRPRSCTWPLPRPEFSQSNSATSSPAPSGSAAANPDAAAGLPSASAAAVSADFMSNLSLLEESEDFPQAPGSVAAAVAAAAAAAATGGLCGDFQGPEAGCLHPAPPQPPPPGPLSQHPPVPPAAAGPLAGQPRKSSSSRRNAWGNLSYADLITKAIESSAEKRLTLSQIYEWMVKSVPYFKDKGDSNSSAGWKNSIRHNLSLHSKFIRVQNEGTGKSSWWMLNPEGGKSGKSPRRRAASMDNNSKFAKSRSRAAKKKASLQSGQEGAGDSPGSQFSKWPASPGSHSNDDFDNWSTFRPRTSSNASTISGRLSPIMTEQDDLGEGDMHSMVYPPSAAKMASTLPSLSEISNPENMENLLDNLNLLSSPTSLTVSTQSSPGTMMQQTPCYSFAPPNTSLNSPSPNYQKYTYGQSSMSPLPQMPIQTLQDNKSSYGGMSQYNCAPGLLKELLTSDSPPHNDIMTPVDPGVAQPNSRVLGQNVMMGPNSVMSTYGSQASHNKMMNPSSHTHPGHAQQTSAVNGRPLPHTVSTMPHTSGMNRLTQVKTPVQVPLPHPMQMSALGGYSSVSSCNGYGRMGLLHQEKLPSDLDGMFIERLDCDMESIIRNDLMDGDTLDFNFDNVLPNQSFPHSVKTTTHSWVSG
Experimental: (vi) In vitro Translation and Electrophoretic Mobility Shift Assay (EMSA)—In vitro translation of FOXO1 proteins and EMSA studies were performed as described (Armoni et al., 2003). The TnT SP6/T7-coupled reticulocyte lysate system (Promega, Madison Wis.) was used to generate in vitro translated FLAG-tagged FOXO1 proteins from the corresponding cDNA, and the resulting protein lysate was used in EMSA. Protein expression was confirmed by SDS-PAGE, followed by phosphorimaging analysis of proteins translated in the presence of ³⁵S-methionine (cell labeling grade; Amersham, Buckinghamshire, UK). In vitro translation reactions generated sufficient protein to use in EMSA studies. Sense and antisense PPARγ promoter-derived oligonucleotides were synthesized that correspond to bp 270-310 of hG2-587 (sense: […] TGGGT […]) (SEQ ID NO: 4); these were annealed and end-labeled with γ-³²P-ATP (6000 Ci/mmol; Amersham, Buckinghamshire, UK) in the presence of polynucleotide kinase. Protein-DNA binding reactions were assembled in a total volume of 20 μl, which included 4 μl of the in vitro translated FOXO1 lysate, radiolabeled probe (˜75,000 cpm), and 4 μg of poly(dI-dC) in a buffer containing 10 mM HEPES (pH 7.9), 1 mM dithiothreitol, 1 mM EDTA, 4% Ficoll, and 50 mM KCl. […] Gels were fixed in 10% acetic acid for 15 min, dried, and analyzed by phosphorimaging.

“3xIRS (three insulin response element repeats) in pGL2-LUC” gave an activity (fold activation) [1] of under 8.5.

B1: hPPARγ2 promoter bp 270-310 (dsDNA)
DNA 1: GACACTGAACATGTGGGTCACCGGCGAGACAGTGTGGCAA
DNA 2: TTGCCACACTGTCTCGCCGGTGACCCACATGTTCAGTGTC
B1: binds [2].
